Laboratory results published in paper PMC8072984, “Engineering of Saposin C Protein Chimeras for Enhanced Cytotoxicity and Optimized Liposome Binding Capability” (Pharmaceutics, 2021).

Target: T1, Human Bcl-xL-ΔTM (native amino acid sequence without the transmembrane domain) (human)
T1 construct: ~24.5 kDa; Unlabeled in the NMR titration; source: cloned into pET21a; not shown: His6, N-terminal, kept
Assay: NMR titration; [1H-15N]-SOFAST-HMQC at 298 K, 600 MHz; 15N-labelled chimera at 100 µM mixed with unlabeled Bcl-xL-ΔTM (stock 900 µM, pH 6.8) at chimera:Bcl-xL molar ratios 1:0, 1:0.5, 1:1, 1:2; 10% D2O; slow exchange, the upper limit of KD estimated from the chemical shift difference assuming diffusion-controlled kon
Conditions: both partners purified

Kd: < 0.049 µM
koff: < 49 s⁻¹
B1: sapC-PUMA chimera (saposin C linked to the BH3 domain of PUMA) (other)
chain: SDVYCEVCEFLVKEVTKLIDNNKTEKEILDAFDKMCSKLPKSLSEECQEVVDTYGSSILSILLEEVSPELVCSMLHLCSGGGGEEQWAREIGAQLRRMADDLNAQYER
modifications: Three disulfide bonds in the sapC part. Chimera numbering of sapC + 307 = P07602 numbering (S4-G83 = 311-390). Vector residues 1-3 (letters only in Figure 2) and the C-terminal thrombin-site remnant …
